Experimental data published in US20180021429A1, “ANTICANCER AGENTS OR ANTIMETASTATIC AGENTS USING FSTL1 AND COMBINATION DRUG THEREOF” (PHARMA FOODS INTERNATIONAL CO., LTD., priority 2015, published 2018).
Entries after “also recorded” stand apart in the source; their conditions may differ.

T1: FSTL1 (Homo sapiens, UniProt Q12841)
T1 sequence (Q12841 21-308): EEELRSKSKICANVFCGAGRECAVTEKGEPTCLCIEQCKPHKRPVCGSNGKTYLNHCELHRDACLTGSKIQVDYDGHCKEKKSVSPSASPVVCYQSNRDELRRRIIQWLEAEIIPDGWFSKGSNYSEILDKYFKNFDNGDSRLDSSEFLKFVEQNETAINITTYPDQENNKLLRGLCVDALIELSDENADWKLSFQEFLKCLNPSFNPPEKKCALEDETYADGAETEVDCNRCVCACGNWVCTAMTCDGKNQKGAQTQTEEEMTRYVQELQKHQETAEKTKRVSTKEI

T2: mouse FSTL1 (Mus musculus, UniProt Q62356)
T2 construct: AAA linker + 10xHis (C); made in house; host or cells: Expi293 (transient expression; purified from culture supernatant on HisPur Cobalt Resin)
T2 sequence (Q62356 with tags, fused parts or gaps): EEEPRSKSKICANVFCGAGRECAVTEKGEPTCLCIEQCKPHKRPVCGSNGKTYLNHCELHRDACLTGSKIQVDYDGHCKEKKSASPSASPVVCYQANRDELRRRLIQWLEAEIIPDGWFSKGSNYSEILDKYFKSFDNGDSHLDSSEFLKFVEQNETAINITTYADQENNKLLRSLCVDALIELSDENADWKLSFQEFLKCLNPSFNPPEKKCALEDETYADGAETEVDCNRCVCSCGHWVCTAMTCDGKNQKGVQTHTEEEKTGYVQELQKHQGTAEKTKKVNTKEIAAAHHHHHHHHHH


Columns and labels:
FSTL1 = biological target: T1, FSTL1; experiment: Biacore T-200 affinity of mouse chimeric antibodies for human FSTL1 (Example 33); type: binding
Procedure: The mouse chimeric antibodies were immobilized onto Sensor Chip CM5 (GE Healthcare Japan Corp., BR-1005-30) using Mouse Antibody Capture Kit (GE Healthcare Japan Corp., BR-1008-38), and their affinity for human FSTL1 was calculated using Biacore T-200 (GE Healthcare Japan Corp.).
First, the exhaustive activity comparison of the obtained antibodies was conducted with the human FSTL1 concentration fixed to 10 μg/ml (Table 33-1, FIG. 122).
Next, the KD values of clone #6-55, #7-34, and #13 presumed to have high affinity in FIG. 122 were calculated with the antigen concentration adjusted to 0 to 20 μg/ml (Table 35-2).

mouse FSTL1 [1] = biological target: T2, mouse FSTL1; experiment: ELISA, binding activity of purified antibody against mouse FSTL1 (Example 2)
Procedure: (§1) The reactivity of the obtained antibody clones described above with FSTL1 was evaluated by ELISA under the following conditions.
(§2) Antibodies used: anti-dinitrophenyl (DNP) antibody (negative control), #5-2, #5-3, #5-8, #5-10, #5-43, #6-55, and #7-34
FIGS. 64 and 65 show results of evaluating binding activity under the condition of Table 3 as to clones differing in screening and antibody purification timings.

[2] = tested on: GFP-positive and Snail-positive B16-F10 tumor cells; experiment: Snail-positive B16-F10 bone metastasis model, intratumoral administration (Example 17); type: in vivo, mouse; conditions: intratumoral 10 mg/kg on day 7, assay day 14; FIG. 105A
Description: Three antibodies were comparatively analyzed for their antitumor effects and an immunosuppression-mitigating effect using bone metastasis models in which mouse melanoma cells B16-F10 forced to express Snail were subcutaneously and intravenously transplanted in C57BL/6N mice.
1. Experiment Group (n=5) • 1. No treatment • 2. Control IgG (anti-DNP) • 3. Anti-FSTL1 Clone #6-55 • 4. Anti-FSTL1 Clone #7-34 • 5. Anti-FSTL1 Clone #8-1
• Day 0: transplantation of GFP-positive and Snail-positive B16-F10 tumor cells (5×10^5 cells subcutaneously & 1×10^5 cells intravenously) • Day 7: intratumoral administration of the antibody (200 μg/0.1 mL/tumor) • Day 14: various assays (with a focus on flow cytometry analysis)
• Effects on the growth of subcutaneous tumor (calculation of tumor volume by tumor size measurement): measured 7, 11, and 14 days after tumor implantation (FIG. 105C) • Effects on bone metastasis (GFP-positive tumor cells in bone marrow) (FIG. 105A) • Effects on the expansion of mesenchymal stem cells (CD45− negative cells in bone marrow and in the spleen) (FIGS. 105B and 105D) • Effects on the expansion of immunosuppressive Treg cells (CD4-positive and Foxp3-positive cells in bone marrow or the spleen) (FIG. 105D) • Other immunosuppressive properties (FIG. 105D)
In order to evaluate in vivo antibody activity, antitumor effects and immunosuppression-mitigating effects were comparatively analyzed using bone metastasis models in which mouse melanoma cells (B16-F10) forced to express Snail were subcutaneously and intravenously transplanted in C57BL/6N mice. […]
It is known that when Snail-positive tumor cells are subcutaneously or intravenously transplanted to mice, the tumor metastasizes preferentially to bone marrow in addition to various organs, and this incurs the expansion of mesenchymal stem cells (MSCs) originating in the bone marrow, thereby systemically and strongly suppressing the induction of antitumor immunity (Cancer Research 73: 6185, 2013). […] The percentage (%) of CD45^− cells in the bone marrow cells was analyzed by flow cytometry.

mouse FSTL1 [3] = biological target: T2, mouse FSTL1; experiment: ELISA binding activity of purified antibody against mouse FSTL1
Procedure: as §1
(Table 2 ELISA Conditions for Binding Activity Evaluation of Purified Antibody)
as §2
FIGS. 96 and 97 show results of evaluating binding activity under the condition of Table 3 as to clones differing in screening and antibody purification timings.
(Table 3 ELISA Conditions for Binding Activity Evaluation of Purified Antibody)

[4] = cross reactivity test, antibody diluted from 1000 ng/ml
[5] = antibody diluted from 100 ng/ml
[6] = ELISA Table 3 conditions, FIG. 97B

binding activity against mouse FSTL1 (mouse FSTL1 [1]; [5])	binding activity against mouse FSTL1 (mouse FSTL1 [3]; [6])	Molecule	affinity in an assay system using surface plasmon resonance (FSTL1)	binding activity against mouse FSTL1 (mouse FSTL1 [1]; [4])	bone metastasis (GFP-positive tumor cells in bone marrow) [2]	binding activity against mouse FSTL1 (mouse FSTL1 [3]; ELISA, FIG. 95B)
		#13: chicken-mouse chimeric anti-FSTL1 antibody clone; variable regions SEQ ID NO: 815 (light), 817 (heavy) (antibody, V domains shown, mouse constant regions) VH: AVTLDESGGGLQTPGGGLSLVCKASGFTFSSVTMQWVRQAPGKGLEWVASICSGSSTYYGPAVKGRATISRDNGQNTVRLQLNNLRAEDTATYYCAKIVGRGRWSCTSAAYNIDAWGHGTEVIVSS VL: ASTQPSSVSANPGETVKITCSGGGNNYGWYQQKSPGSAPVTVIYNNNNRPSNIPSRFSGSKSGSTNTLTITGVQAEDEAVYYCGSYDSSSDSGIFGAGTTLTVL	strong affinity			
		#6-55: chicken-mouse chimeric anti-FSTL1 antibody clone; variable regions SEQ ID NO: 783 (light), 785 (heavy) (antibody, V domains shown, mouse constant regions) VH: AVTLDESGGGLQTPGGALSLVCKGSGFTFTSVTMQWVRQAPGKGLEWVASVCSGSSTYYAPAVKGRATISRDNGQSTVRLQLSNLRPEDTGTYYCAKIAGRARWSCTSAAYNIDAWGHGTEVIVSS VL: ASTQPSSVSAIPGETVKITCSGGGNNYGWYQQRSPGSAPVTVIYYNDNRPSNIPSRFSGSTSGSTSTLTITGVQADDEAIYYCGSWDSNTDSGIFGAGTTLTVL	strong affinity	specific and equivalently strong binding activity	suppressed	specific and equivalently strong binding activity
		#7-34: chicken-mouse chimeric anti-FSTL1 antibody clone; variable regions SEQ ID NO: 787 (light), 789 (heavy) (antibody, V domains shown, mouse constant regions) VH: AVTLDESGGGLQTPGGGLSLVCKASGFTFSSVTMQWVRQAPGKGLEWVASICSGSSTYYGPAVKGRATISRDNGQNTVRLQLNNLRAEDTATYYCAKIVGRGRWSCTSAAYNIDAWGHGTEVIVSS VL: ASTQPSSVSANPGETVKITCSGGGNNYGWYQQKSPGSAPVTVIYYNNNRPSNIPSRFSGSTSGSTSTLTITGVQAEDEAVYYCGSYEGSTDSGIFGAGTTLTVL		specific and equivalently strong binding activity	no suppressive effect	
		#33: chicken-mouse chimeric anti-FSTL1 antibody clone; variable regions SEQ ID NO: 823 (light), 825 (heavy) (antibody, V domains shown, mouse constant regions) VH: AVTLDESGGGLQTPGGGLSLVCKASGFTFSSFNMNWVRQAPGKGLEYVAEISGTGSSTYYGSAVKGRATISRDNGQSTVRLQLNNLRAEDTATYFCARGDGAYSIDAWGHGTEVIVSS VL: ASTQPSSVSANPGETVEITCSGDSSYYGWFQQKSPGSAPVTVIYDNTNRPSDIPSRFSGSKSGSTATLTITGVRAEDEAVYYCGGYDSSTYDGIFGAGTTLTVL	strong affinity			
exhibited no binding activity	no binding activity	#8-4: chicken-mouse chimeric anti-FSTL1 antibody clone; variable regions SEQ ID NO: 795 (light), 797 (heavy) (antibody, V domains shown, mouse constant regions) VH: AVTLDESGGGLQTPGGGLSLVCKGSGFTLSSFNMFWVRQAPGKGLEWVAGVGKDGGTAYGAAVDGRATISRDSGQSTVRLQLNNLRAEDTGTYFCAKAAGGCSYSWCGAYVGDLDAWGHGTEVIVSS VL: ASSQPSSVSANPGETVKITCSGGSGYYYGWYQQKSPGSAPVTVIYNNDNKPSDIPSRFSGSKSGSTGTLTITGVQVEDEAVYFCGGYDNSGTGIFGAGTTLTVL				
exhibited no binding activity	no binding activity	#5-8: chicken-mouse chimeric anti-FSTL1 antibody clone; variable regions SEQ ID NO: 771 (light), 773 (heavy) (antibody, V domains shown, mouse constant regions) VH: AVTLDESGGGLQTPGGGLSLVCKGSGFTFSSFNMFWVRQAPGKGLEWVAGIGKDGVPKYGTAVDGRATISKDNGQSTMRLQLNNLRAEDTGTYFCAKAAGGCSYDWCGIYTGDIDTWGHGTEVIVSS VL: ASTQPSSVSANPGEAVKITCSGGSGSYYGWYQQKSPGSAPVTVIYNNNQRPSDIPSRFSGSKSGSTATLTITGVQAEDEAVYFCGGYDSSTGHGGIFGAGTTLTVL				

Molecule	binding activity against mouse FSTL1 (mouse FSTL1 [1]; [5])	binding activity against mouse FSTL1 (mouse FSTL1 [3]; [6])	affinity in an assay system using surface plasmon resonance (FSTL1)	binding activity against mouse FSTL1 (mouse FSTL1 [1]; [4])	bone metastasis (GFP-positive tumor cells in bone marrow) [2]	binding activity against mouse FSTL1 (mouse FSTL1 [3]; ELISA, FIG. 95B)
#8-1: chicken-mouse chimeric anti-FSTL1 antibody clone; variable regions SEQ ID NO: 791 (light), 793 (heavy) (antibody, V domains shown, mouse constant regions) VH: AVTLDESGGGLQTPGGALSLVCKGSGFTFSSFNMFWVRQAPGKGLEWVAGIGKDGVPKYGAAVDGRATISKDNGQSTMRLQLNNLRAEDTGTYFCAKAAGGCSYDWCGIYAGDIDTWGHGTEVIVSS VL: ASTQPSSVSANPGEAVKITCSGGSGSYYGWYQQKSPGSAPVTVIYNNNQRPSDIPSRFSGSKSGSTATLTITGVQAEDEAVYFCGGYDSSSGHGGIFGAGTTLTVL	slightly exhibited binding activity; also recorded: very slightly exhibited binding activity	very slightly exhibited binding activity			suppressed	
